Measurements as given in IntAct's records for PubMed 10861283.

B1: Merlin (Homo sapiens), P35240-3 (parent)
chain: MAGAIASRMSFSSLKRKQPKTFTVRIVTMDAEMEFNCEMKWKGKDLFDLVCRTLGLRETWFFGLQYTIKDTVAWLKMDKKVLDHDVSKEEPVTFHFLAKFYPENAEEELVQEITQHLFFLQVKKQILDEKIYCPPEASVLLASYAVQAKYGDYDPSVHKRGFLAQEELLPKRVINLYQMTPEMWEERITAWYAEHRGRARDEAEMEYLKIAQDLEMYGVNYFAIRNKKGTELLLGVDALGLHIYDPENRLTPKISFPWNEIRNISYSDKEFTIKPLDKKIDVFKFNSSKLRVNKLILQLCIGNHDLFMRRRKADSLEVQQMKAQAREEKARKQMERQRLAREKQMREEAERTRDELERRLLQMKEEATMANEALMRSEETADLLAEKAQITEEEAKLLAQKAAEAEQEMQRIKATAIRTEEEKRLMEQKVLEAEVLALKMAEESERRAKEADQLKQDLQEAREAERRAKQKLLEIATKPTYPPMNPIPAPLPPDIPSFNLIGDSLSFDFKDTDMKRLSMEIEKEKVEYMEKSKHLQEQLNELKTEIEALKLKERETALDILHNENSDRGGSSKHNTIKKPQAQGRRPICI

Experiments:
HGS, O14964-1 = variants of: B1; conditions: with HGS
Chain of HGS, O14964-1 (O14964 whole entry): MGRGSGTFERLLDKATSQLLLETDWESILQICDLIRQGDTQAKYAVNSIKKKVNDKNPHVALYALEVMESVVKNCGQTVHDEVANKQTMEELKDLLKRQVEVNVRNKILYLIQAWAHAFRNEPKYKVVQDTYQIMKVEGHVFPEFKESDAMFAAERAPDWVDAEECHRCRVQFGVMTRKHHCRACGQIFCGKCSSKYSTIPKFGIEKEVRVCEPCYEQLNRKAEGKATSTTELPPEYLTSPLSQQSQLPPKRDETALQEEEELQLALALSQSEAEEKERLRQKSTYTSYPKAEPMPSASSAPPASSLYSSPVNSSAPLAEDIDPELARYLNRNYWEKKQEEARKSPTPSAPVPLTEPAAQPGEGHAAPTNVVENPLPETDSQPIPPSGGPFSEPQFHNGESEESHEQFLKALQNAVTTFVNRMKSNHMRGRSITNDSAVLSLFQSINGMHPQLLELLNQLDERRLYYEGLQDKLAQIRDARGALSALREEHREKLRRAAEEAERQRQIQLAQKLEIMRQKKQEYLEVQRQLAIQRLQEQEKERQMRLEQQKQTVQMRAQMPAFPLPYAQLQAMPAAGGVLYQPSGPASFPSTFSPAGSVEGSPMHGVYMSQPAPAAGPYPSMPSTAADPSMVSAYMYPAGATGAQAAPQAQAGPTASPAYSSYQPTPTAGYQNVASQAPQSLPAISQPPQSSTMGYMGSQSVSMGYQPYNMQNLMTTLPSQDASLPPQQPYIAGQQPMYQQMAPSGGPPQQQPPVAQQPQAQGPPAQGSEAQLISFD

HGS, O14964-2 = variants of: B1; conditions: with HGS
Chain of HGS, O14964-2 (O14964 other isoform, or with tags, fused parts or gaps): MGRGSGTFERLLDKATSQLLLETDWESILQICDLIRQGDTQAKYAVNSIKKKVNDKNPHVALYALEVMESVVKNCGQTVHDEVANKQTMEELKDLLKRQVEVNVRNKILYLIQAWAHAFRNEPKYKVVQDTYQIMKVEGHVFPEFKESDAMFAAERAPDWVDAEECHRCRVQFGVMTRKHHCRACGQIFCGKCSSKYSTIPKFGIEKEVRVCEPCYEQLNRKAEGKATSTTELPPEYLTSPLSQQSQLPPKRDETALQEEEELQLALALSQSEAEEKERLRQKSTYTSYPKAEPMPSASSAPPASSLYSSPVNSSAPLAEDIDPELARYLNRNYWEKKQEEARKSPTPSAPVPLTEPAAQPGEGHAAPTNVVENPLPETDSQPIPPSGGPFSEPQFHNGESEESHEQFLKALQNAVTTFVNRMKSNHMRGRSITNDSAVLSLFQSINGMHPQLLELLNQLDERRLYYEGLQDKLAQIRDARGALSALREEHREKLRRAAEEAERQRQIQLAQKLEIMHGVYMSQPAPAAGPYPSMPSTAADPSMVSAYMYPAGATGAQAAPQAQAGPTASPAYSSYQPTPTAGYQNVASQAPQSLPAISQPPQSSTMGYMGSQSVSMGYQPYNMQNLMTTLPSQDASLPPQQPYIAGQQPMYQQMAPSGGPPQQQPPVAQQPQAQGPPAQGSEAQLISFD

effect of a mutation on the interaction (HGS, O14964-1)	effect of a mutation on the interaction (HGS, O14964-2)	Variant
decreasing interaction strength	decreasing interaction strength	MAGAIASRMSFSSLKRKQPKTFTVRIVTMDAEMEFNCEMKWKGKDRFDLVCRTLGLRETWFFGLQYTIKDTVAWLKMDKKVLDHDVSKEEPVTFHFLAKFYPENAEEELVQEITQHLFFLQVKKQILDEKIYCPPEASVLLASYAVQAKYGDYDPSVHKRGFLAQEELLPKRVINLYQMTPEMWEERITAWYAEHRGRARDEAEMEYLKIAQDLEMYGVNYFAIRNKKGTELLLGVDALGLHIYDPENRLTPKISFPWNEIRNISYSDKEFTIKPLDKKIDVFKFNSSKLRVNKLILQLCIGNHDLFMRRRKADSLEVQQMKAQAREEKARKQMERQRLAREKQMREEAERTRDELERRLLQMKEEATMANEALMRSEETADLLAEKAQITEEEAKLLAQKAAEAEQEMQRIKATAIRTEEEKRLMEQKVLEAEVLALKMAEESERRAKEADQLKQDLQEAREAERRAKQKLLEIATKPTYPPMNPIPAPLPPDIPSFNLIGDSLSFDFKDTDMKRLSMEIEKEKVEYMEKSKHLQEQLNELKTEIEALKLKERETALDILHNENSDRGGSSKHNTIKKPQAQGRRPICI [L46R]
decreasing interaction strength	decreasing interaction strength	MAGAIASRMSFSSLKRKQPKTFTVRIVTMDAEMEFNCEMKWKGKDLFDLVCRTLGLRETWFFGLQYTIKDTVAWLKMDKKVLDHDVSKEEPVTFHFLAKFYPENAEEELVQEITQHLFFLQVKKQILDEKIYCPPEASVLLASYAVQAKYGDYDPSVHKRGFLAQEELLPKRVINLYQMTPEMWEERITAWYAEHRGRARDEAEMEYLKIAQDLEMYGVNYFAIRNKKGTELLLGVDALGLHIYDPENRLTPKISFPWNEIRNISYSDKEFTIKPLDKKIDVFKFNSSKLRVNKLILQLCIGNHDLFMRRRKADSLEVQQMKAQAREEKARKQMERQRLAREKQMREEAERTRDELERRPLQMKEEATMANEALMRSEETADLLAEKAQITEEEAKLLAQKAAEAEQEMQRIKATAIRTEEEKRLMEQKVLEAEVLALKMAEESERRAKEADQLKQDLQEAREAERRAKQKLLEIATKPTYPPMNPIPAPLPPDIPSFNLIGDSLSFDFKDTDMKRLSMEIEKEKVEYMEKSKHLQEQLNELKTEIEALKLKERETALDILHNENSDRGGSSKHNTIKKPQAQGRRPICI [L360P]
decreasing interaction strength	decreasing interaction strength	MAGAIASRMSFSSLKRKQPKTFTVRIVTMDAEMEFNCEMKWKGKDLFDLVCRTLGLRETWFFGLQYTIKDTVAWLKMDKKVLDHDVSKEEPVTFHFLAKFYPENAEEELVQEITQHLFFLQVKKQILDEKIYCPPEASVLLASYAVQAKYGDYDPSVHKRGFLAQEELLPKRVINLYQMTPEMWEERITAWYAEHRGRARDEAEMEYLKIAQDLEMYGVNYFAIRNKKGTELLLGVDALGLHIYDPENRLTPKISFPWNEIRNISYSDKEFTIKPLDKKIDVFKFNSSKLRVNKLILQLCIGNHDLFMRRRKADSLEVQQMKAQAREEKARKQMERQRLAREKQMREEAERTRDELERRLLQMKEEATMANEALMRSEETADLLAEKAQITEEEAKLLAQKAAEAEQEMQRIKATAIRTEEEKRLMEQKVLEAEVLALKMAEESERRAKEADQLKQDLQEAREAERRAKQKLLEIATKPTYPPMNPIPAPLPPDIPSFNLIGDSLSFDFKDTDMKRLSMEIEKEKVEYMEKSKHPQEQLNELKTEIEALKLKERETALDILHNENSDRGGSSKHNTIKKPQAQGRRPICI [L535P]
decreasing interaction strength	decreasing interaction strength	MAGAIASRMSFSSLKRKQPKTFTVRIVTMDAEMEFNCEMKWKGKDLFDLVCRTLGLRETWFFGLQYTIKDTVAWLKMDKKVLDHDVSKEEPVTFHFLAKFYPENAEEELVQEITQHLFFLQVKKQILDEKIYCPPEASVLLASYAVQAKYGDYDPSVHKRGFLAQEELLPKRVINLYQMTPEMWEERITAWYAEHRGRARDEAEMEYLKIAQDLEMYGVNYFAIRNKKGTELLLGVDALGLHIYDPENRLTPKISFPWNEIRNISYSDKEFTIKPLDKKIDVFKFNSSKLRVNKLILQLCIGNHDLFMRRRKADSLEVQQMKAQAREEKARKQMERQRLAREKQMREEAERTRDELERRLLQMKEEATMANEALMRSEETADLLAEKAQITEEEAKLLAQKAAEAEQEMQRIKATAIRTEEEKRLMEQKVLEAEVLALKMAEESERRAKEADQLKQDLQEAREAERRAKQKLLEIATKPTYPPMNPIPAPLPPDIPSFNLIGDSLSFDFKDTDMKRLSMEIEKEKVEYMEKSKHLQEPLNELKTEIEALKLKERETALDILHNENSDRGGSSKHNTIKKPQAQGRRPICI [Q538P]
